Source: patent US7091311
*1 amine or outer side, *2 acyl side, *3 side chain or, on linkers, in order; H or OH if unused. Bridges are numbered along the chain shown (N, C = ends). Where no end group is shown, it is not given here. [ ]: non-standard residue; d: D form. NMeSer(Bzl) = N-methyl-O-benzyl-serine, CN([C@@H](COCc1ccccc1)C(=O)[*:2])[*:1]; Phe(4-NO2) = N[C@@H](Cc1ccc([N+](=O)[O-])cc1)C(=O)O; Phe(3,4-Cl2) = N[C@@H](Cc1ccc(Cl)c(Cl)c1)C(=O)O; DiPhAla = diphenylalanine (source's own name); Ser(Bzl) = O=C([C@H](COCc1ccccc1)N[*:1])[*:2]; Phe(4-Cl) = N[C@@H](Cc1ccc(Cl)cc1)C(=O)O; 1Nal = N[C@@H](Cc1cccc2ccccc12)C(=O)O; 2Nal = N[C@@H](Cc1ccc2ccccc2c1)C(=O)O; hPhe = N[C@@H](CCc1ccccc1)C(=O)O; 2Thi = N[C@@H](Cc1cccs1)C(=O)O; Cha = N[C@@H](CC1CCCCC1)C(=O)O; Phg = N[C@H](C(=O)O)c1ccccc1; Tle = CC(C)(C)[C@H](N)C(=O)O; NMeV = CN[C@H](C(=O)O)C(C)C; NMeA = CN[C@@H](C)C(=O)O; Nle = CCCC[C@H](N)C(=O)O; Nva = CCC[C@H](N)C(=O)O; Abu = CC[C@H](N)C(=O)O; Aib = CC(C)(N)C(=O)O; Sar = CNCC(=O)O

Target: soluble TPO-R (UniProt P40238)
Sequence (P40238 26-491): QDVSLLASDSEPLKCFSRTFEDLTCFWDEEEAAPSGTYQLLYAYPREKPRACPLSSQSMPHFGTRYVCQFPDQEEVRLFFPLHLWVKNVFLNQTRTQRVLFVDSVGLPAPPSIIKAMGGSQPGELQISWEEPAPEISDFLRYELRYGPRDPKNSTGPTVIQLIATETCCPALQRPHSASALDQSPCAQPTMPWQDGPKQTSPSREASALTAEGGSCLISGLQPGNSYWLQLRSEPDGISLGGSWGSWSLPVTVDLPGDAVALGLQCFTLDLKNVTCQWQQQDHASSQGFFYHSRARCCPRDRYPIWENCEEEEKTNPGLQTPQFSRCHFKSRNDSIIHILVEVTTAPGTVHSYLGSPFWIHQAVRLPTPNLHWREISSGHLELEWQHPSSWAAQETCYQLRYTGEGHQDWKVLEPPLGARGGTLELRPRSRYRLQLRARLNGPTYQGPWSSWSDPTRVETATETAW
Assay: competition ELISA vs MBP-TPO156

IC50 [nM] | Binder
< 500 | CADGPTLREWIS[Phg]C (disulfide 1-14 (inferred); not fully specified) [SEQ ID NO:12 cyclized, F - (Phenylgly)]
200000 | PTLREWISFC (not fully specified; also: further groups not given here) [[drawing CHEM-US-00041] (SEQ ID NO:191)(SEQ ID NO:191)]
< 500 | CADGPTLREWI[Aib]FC (disulfide 1-14 (inferred); not fully specified) [SEQ ID NO:12 cyclized, S - Aib]
< 500 | CADGPTLREWI[Nva]FC (disulfide 1-14 (inferred); not fully specified) [SEQ ID NO:12 cyclized, S - Nva]
< 500 | CADGPTLREWIS[2Thi]C (disulfide 1-14 (inferred); not fully specified) [SEQ ID NO:12 cyclized, F - Thi]
< 500 | GPTLREWISFC (not fully specified; also: further groups not given here) [[drawing CHEM-US-00038] (SEQ ID NO:190)(SEQ ID NO:190)]
< 500 | PTLREWISFC (not fully specified; also: further groups not given here) [[drawing CHEM-US-00040] (SEQ ID NO:191)(SEQ ID NO:191)]
< 500 | CADGPTLREWI[Abu]FC (disulfide 1-14 (inferred); not fully specified) [SEQ ID NO:12 cyclized, S - Abu]
200000 | TLREWISFC (also: further groups not given here) [[drawing CHEM-US-00043] (SEQ ID NO:192)(SEQ ID NO:192)]
200000 | ADGPTLREWISFC (not fully specified; also: further groups not given here) [[drawing CHEM-US-00006] (SEQ ID NO:173)]
< 500 | ADGPTLREWISFC (also: further groups not given here) [[drawing CHEM-US-00035] (SEQ ID NO:173)(SEQ ID NO:173)]
< 500 | CADGPTLREWIS[DiPhAla]C (disulfide 1-14 (inferred); not fully specified) [SEQ ID NO:12 cyclized, F - (DiPh - Ala)]
< 200000 | CADGPTLREWI[NMeSer(Bzl)]FC (disulfide 1-14 (inferred); not fully specified) [SEQ ID NO:12 cyclized, S - [N-Me-Ser(Bzl)]]
< 500 | CADGPTLREWIS[Phe(4-NO2)]C (disulfide 1-14 (inferred); not fully specified) [SEQ ID NO:12 cyclized, F - (p-Nitrophe)]
< 500 | CADGPTLREWI[Nle]FC (disulfide 1-14 (inferred); not fully specified) [SEQ ID NO:12 cyclized, S - (Nor-Leu)]
< 500 | CADGPTLREWIS[Pyridylala]C (not fully specified (bridges); also: cyclized, type not given here) [SEQ ID NO:12 cyclized, F - (Pyridylala)]
< 200000 | GPTLREWISFC (not fully specified; also: further groups not given here) [[drawing CHEM-US-00039] (SEQ ID NO:190)(SEQ ID NO:190)]

IC50 [nM] | Binder
< 200000 | CADGPTLREWI[NMeA]FC (disulfide 1-14 (inferred); not fully specified) [SEQ ID NO:12 cyclized, S - (N-Me-Ala)]
< 500 | ADGPTLREWISFC (also: further groups not given here) [[drawing CHEM-US-00036] (SEQ ID NO:173)(SEQ ID NO:173)]
< 500 | CADGPTLREWIS[Phe(4-Cl)]C (disulfide 1-14 (inferred); not fully specified) [SEQ ID NO:12 cyclized, F - (p-Cl-Phe)]
200000 | TLREWISFC (also: further groups not given here) [[drawing CHEM-US-00042] (SEQ ID NO:192)(SEQ ID NO:192)]
< 500 | ADGPTLREWISFC (also: further groups not given here) [[drawing CHEM-US-00027] / [drawing CHEM-US-00028] (SEQ ID NO:173)]
< 500 | CADGPTLREWIS[Ser(Bzl)]C (disulfide 1-14 (inferred); not fully specified) [SEQ ID NO:12 cyclized, F - (Ser(Bzl))]
< 500 | CADGPTLREWIS[Phe(3,4-Cl2)]C (disulfide 1-14 (inferred); not fully specified) [SEQ ID NO:12 cyclized, F - (3,4-di-Cl-Phe)]
< 500 | CADGPTLREWIS[1Nal]C (disulfide 1-14 (inferred); not fully specified) [SEQ ID NO:12 cyclized, F - (1-Nal)]
< 500 | ADGPTLREWISFC (not fully specified; also: further groups not given here) [[drawing CHEM-US-00013] (SEQ ID NO:173)]
< 500 | CADGPTLREWI[Sar]FC (disulfide 1-14 (inferred); not fully specified) [SEQ ID NO:12 cyclized, S - Sar]
200000 | CADGPTLREWI[NMeV]FC (disulfide 1-14 (inferred); not fully specified) [SEQ ID NO:12 cyclized, S - (N-Me-Val)]
< 500 | CADGPTLREWIS[Cha]C (disulfide 1-14 (inferred); not fully specified) [SEQ ID NO:12 cyclized, F - CHA]
< 500 | CADGPTLREWI[Tle]FC (disulfide 1-14 (inferred); not fully specified) [SEQ ID NO:12 cyclized, S - (t-Bu-Gly)]
< 500 | CADGPTLREWIS[2Nal]C (disulfide 1-14 (inferred); not fully specified) [SEQ ID NO:12 cyclized, F - (2-Nal)]
200000 | CADGPTLREWIS[NMeA]C (disulfide 1-14 (inferred); not fully specified) [SEQ ID NO:12 cyclized, F - (N-Me-Ala)]
< 500 | CADGPTLREWIS[hPhe]C (disulfide 1-14 (inferred); not fully specified) [SEQ ID NO:12 cyclized, F - Homo-Phe]
